Assay [1] addresses T1, His-tagged CD47 recombinant protein, CD47-His (human, UniProt Q08722 19-141, limits assumed).
T1 construct: it is not restated for CD47-His; also called human CD47-His protein; antigen CD47-His; not shown: His tag
Kind of assay: BLI (Octet Red 96), antibody on AHC sensor, CD47-His 100 nM. In general terms: In BLI a coated tip is dipped into the sample, and binding shifts an interference pattern.

In assay [2] the target is T2, biotin-labeled CD47 extracellular domain protein (CD47-ECD) (UniProt Q08722 19-139, limits assumed, biotin-labeled (sites not given)).
T2 construct: extracellular domain; also called CD47 protein
Kind of assay: blocking ELISA: SIRPα-hFc coated, biotin-labeled CD47-ECD added with the antibody, OD450; blocked ligand SIRPα-hFc. A general note: An ELISA detects its analyte on a solid surface through an enzyme-linked reagent.

B1: c95E2D10 (antibody, V domains shown)
VH: QIQLQQSGPELVKPGASMKISCKASGYPFTDYYIHWVKQKPGQGLEWIGWIYPGSGNNKYNEKFKGKATLTVDTSPSTVYMQLSSLTSEDTAVYFCARRAGNYFDYWGQGTTLTVSS
VL: NIVMTQSPKSMSRSVGERVTLSCRASENVRTYVFWYQQKPGLSPKLLIYGASNRYIGVPDRFTGSGSATDFTLTISSVQAEDLADYHCGQSYSYPLTFGAGTKLELK
For the molecule B1, in assay [1], the Kd (in general, the equilibrium constant for the complex coming apart) is 10.2 nM; the koff – broadly, a measure of how fast the partners let go of each other – was found to be 0.00358 s⁻¹; the kon – broadly, a measure of how fast the partners come together – was 350000 M⁻¹ s⁻¹. Moreover, the “IC50 (read off the curve)” value in assay [2] is about 1 nM.

These data come from patent US20220017615A1 (SHANGHAI PHARMAEXPLORER, published 2022).
